B1: HDV Ribozyme (parent)
chain: GGCCGGCAUGGUCCCAGCCUCCUCGCUGGCGCCGGCUGGGCAACAUUCCGAGGGGACCGUCCCCUCGGUAAUGGCGAAUGGGACCCA

Variants of: B1
Assay: self-cleavage, relative activity (ratio to wild type); higher = more cleavage; co-transcriptional

Variant | self-cleavage
A43U C86A | 0.554
A42U A45G | 0.237
A42U A45C | 0.361
A43C C63G | 0.185
C44A G81U | 0.203
A43U G80U | 0.173
A43U G80A | 0.0237
A43U G80C | 0.115
C44G | 0.753
C44A | 0.764
A43G C49G | 0.344
A43U C61G | 0.528
A43U G59A | 0.633
A43C G52U | 0.402
A43C G52C | 0.386
A43C G52A | 0.511
A43G | 0.618
A43C | 0.498
A43U | 0.546
C44G A45G | 0.503
C44G A45U | 0.776
C44A G53U | 0.929
C44A G53A | 0.831
A43U G76U | 0.307

Variant | self-cleavage
A43U G76C | 0.181
A43G C62A | 0.554
A42U A70C | 0.636
A42U A70G | 0.571
A43G A51C | 0.745
A43G A51U | 0.646
A43U U69G | 0.199
A43U U69A | 0.449
A43C U69G | 0.68
A43U C66G | 0.47
A42G U79A | 0.573
A43C C48G | 0.449
A43C C48U | 0.619
C44A G82U | 0.0791
A42U C61G | 0.77
A42U C61A | 0.47
A42U C61U | 0.445
A43U A87G | 0.274
A43U A87C | 0.314
A42U C75G | 0.125
A42U C75U | 0.0665
A42U U46G | 0.287
A42U U46C | 0.45
A43U C75A | 0.0755

Variant | self-cleavage
A43U C75U | 0.128
A42U A71C | 0.342
A42U A71G | 0.431
A43G A83G | 0.215
A43U G74U | 0.684
A43U G74A | 0.261
A42U U60A | 0.665
C44A U47A | 0.965
C44A U47C | 0.831
C44A U47G | 0.906
A42U U65C | 0.657
C44A G55A | 0.554
C44A U65A | 0.95
A42U C64A | 0.639
A43G C48A | 0.81
A42U | 0.529
A43G U72G | 0.554
A43U G67C | 0.354
A43U G67U | 0.499
A43U G67A | 0.237
C44A A45G | 1.01
C44A A45U | 0.95
A43C C58U | 0.671
A43C C58G | 0.443

Variant | self-cleavage
A43G C84U | 0.426
C44A A71U | 0.81
A43U U60G | 0.394
A43U U60C | 0.678
A43U C48U | 0.608
A43G G55A | 0.566
C44A G68C | 0.764
C44A G68U | 0.554
A43C A78G | 0.0978
A43C A78C | 0.0723
C44A C86G | 0.787
A43U C84G | 0.146
A42U C63U | 0.506
A42U C63G | 0.504
A43C G50U | 0.432
A43G G74U | 0.243
A43G G74C | 0.0791
C44A A87C | 0.74
A43U G50C | 0.492
A43C G68C | 0.283
C44A A83C | 0.269
C44A A83U | 0.0615
A43C U46G | 0.415
C44A U60C | 0.831

Variant | self-cleavage
A43C C84U | 0.135
A43C G82A | 0.185
A43C G82U | 0.0545
C44A C48G | 0.594
C44A C48U | 0.692
A43U U72A | 0.194
A43U U72G | 0.256
A43C A87C | 0.407
A43C A87G | 0.306
A43C A83G | 0.0923
A43C A83C | 0.332
A43C A83U | 0.161
A43C G76C | 0.604
A43C G76U | 0.95
A42U C57G | 0.489
A42U C57U | 0.428
A43G U79G | 0.199
A43G U79C | 0.0941
A43C U47G | 0.302
A43C U47C | 0.208
A43C G80A | 0.124
A43C G54C | 0.403
A42U G59C | 0.422
A42U G59U | 0.595

Variant | self-cleavage
A42U G59A | 0.845
A42U C62G | 0.6
A42U C62A | 0.618
A43U U47C | 0.554
A43U U47A | 0.271
A43C A45C | 0.415
A43C A45G | 0.643
A42U A77C | 0.0519
C44A U72C | 0.467
C44A U72A | 0.733
A43U C63U | 0.554
A43G U47A | 0.383
A43G G52U | 0.742
A43C G67A | 0.322
A43U G68C | 0.198
A43U G68A | 0.408
A43G G68A | 0.665
A43G G68C | 0.253
A43C G55U | 0.748
A43G U60G | 0.755
A43G U60A | 0.594
A42U G80C | 0.166
A42U G80U | 0.138
A43C A51C | 0.604

Variant | self-cleavage
A43C A51G | 0.499
A43C A51U | 0.324
A42G U72C | 0.475
A42G U72G | 0.35
A43U C44U | 1.07
A43U C44G | 0.739
A42U C85U | 0.541
C44A G59U | 0.776
C44A U46C | 0.767
A42U A83G | 0.177
A42U A83U | 0.142
A42U A83C | 0.119
A42U G68U | 0.162
A42U G68C | 0.397
A42U G68A | 0.407
A43C C62G | 0.322
A43C C62U | 0.508
A43C C62A | 0.415
C44A C75G | 0.369
A43G G73A | 0.219
C44A C66G | 0.898
C44A C66A | 0.628
A43U C64A | 0.397
